Assay results reported in the DeepSol protein solubility set.

Assay: soluble on expression in E. coli; label from the status in PepcDB or PDB records

Row | Sequence | soluble on expression in E. coli
1 | MWLRDPFPRLYPDGDFQMACDRFFGNPYDSDNWVNGGFTYVRSNNRSIEFYKFWHKSRLDYPDLHDQDVFNRIKHEPFISEIGIQMRFFDTVYFGGFCQTSRDINLVCTMHANCCIGLDKKLHDLNLVLDDWRKYLSLSEPVQNTTWSVPMKCLED | not soluble
2 | MYDMINAKYLGKLIFLDFGQTITSLEETSDNSTFFIADEFGNFGSHYVGVVLEQVRSFNTVVILSYQSFANLRNIGGDNFKSQIINNTSTLIAHRLIDMMEAEEVANLYGVDITCASEIKSLKVGQALVRSISSYYGEIKDWLVQQIDKS | soluble
3 | MYEAKDYKSDQYVRWCPGCGDHAVVVTLQKAMAEIGIPPHQTAVMSGIGCSSRLPYYMNTYGFHTIHGRGAAIATGVKTANPELSVWLASGDGDSLAIGGNHFIHAVRRNIDINAVLFNNRIYGLTKGQYSPTSARGFVSKSSPYGTVEDPFIPAELVLGARGNFFARAIDVDMKTLQECFVASARHRGFAVTEVLVNCVIFNDGTHKDRSHKDIRADRTITLRHGEKMIFGANRDKGIVLEGLKLRAVTIGEDGYTLDDVLVHDKYEQDVTLHHLLAMMGYTDDSMPIALGVIRDVEAPCYDRAVEAQIEEIQQKNPIRKLHDLLIQGDVWEIK | not soluble
4 | MYELTEDFKLRKITKYELDGIDEREDLLVIPPSSKAGPCGNACLFCYLLQNPPEMIYKVPRHDTLNDPDLENRIRYARKHYDLWIRVTDTSGNIKFDENRIKSLYDAGLDEIQISVHTTKKDVRARLMRNRQAGKLIDLLPLVAKHFRTIADIILTPGFNVEDIGEIIEDLDSMGVHEVRLFPVGVTRYNKFGVRPLTREELSYVKGIALEKDKELAIKVVIPPIFLALLGEFTTGLEPFDIEPDFPTYIFTGELAYQEMKRLFPRVNVIMVKNEFFGGNIGSAGLLTGRDILREVEKLPEVDLGLIILPELMFYGDMTLDGWRRQELFSKILIEKGYIVETALEPTEIPRVIEKVTL | not soluble
5 | MYELYTLLAEYYDTIYRRRIERVKAEIDFVEEIFKEDAKREVRRVLDLACGTGIPTLELAERGYEVVGLDLHEEMLRVARRKAKERNLKIEFLQGDVLEIAFKNEFDAVTMFFSTIMYFDEEDLRKLFSKVAEALKPGGVFITDFPCWFYGGRDGPVVWNEQKGEEKLVIMDWREVEPAVQKLRFKRLVQILRPNGEVKAFLVDDELNIYTPREVRLLAEKYFEKVKIYGNLKRELSPNDMRYWIVGIAKSF | soluble
6 | MYFEGYGYRGSTFEQTYRCYPASFIDKPQLETGDKIIMPPSALDRLASLHIEYPMLFEVHNAAAERTSHCGVLEFIAEEGMIYMPYWMMQNLLLTEGDMVFIKNANLPKGTYVKLQPHTTDFLDISNPKAILEKTLRNYSCLTTGDSIMVAYNNKKYYIDIVETKPSNAISIIETDCEVDFAPPLDYKEPERQKAAVPPSTAPTAEEAAEEEPKFIPFTGPGRRLDGKAPKDKDVSASSPAKRQANATNSVQPSTASTSQSSSSRKTTEKLVFGPGGNRTSKETEKVPEKEPKEDPKKDEPKFSAFTGRKYSLKG | soluble
7 | MYGSEGGAMRIVAGVGENRNMERAASLADFEVDLVHSEEEFIEELRRGAAAYVRGSLPAANIMAELKKGGPLNRASWIEVGANGFLLAPVGIDEGRTVDDRFKIAVSASEFLRKTGEEPRVGVISGGRRGDLGRSPEVDRSIHEGEFLTSMIKDKYRVRHYHILIEEAVADGCNVIIAPDGITGNLIFRSLVLVGTARSYGAVALGFDGIFVDTSRSQTAEGYLRALKFAHWLARGWNEDNE | soluble
8 | MYGYYSIGELTKEFSITARTLRYYEEEGLLVPCRHGSARFYTQTDRHKLKQILRAKRVKFSLSEISEMLSMVGKPPTDEKKLKELIAGVNKKRADLQQMQRDIDDFLHDLERIEETLFESLAELGVNR | not soluble
9 | MYHNSSQKRHWTFSSEEQLARLRADANRKFRCKAVANGKVLPNDPVFLEPHEEMTLCKYYEKRLLEFCSVFKPAMPRSVVGTACMYFKRFYLNNSVMEYHPRIIMLTCAFLACKVDEFNVSSPQFVGNLRESPLGQEKALEQILEYELLLIQQLNFHLIVHNPYRPFEGFLIDLKTRYPILENPEILRKTADDFLNRIALTDAYLLYTPSQIALTAILSSASRAGITMESYLSESLMLKENRTCLSQLLDIMKSMRNLVKKYEPPRSEEVAVLKQKLERCHSAELALNVITKKRKGYEDDDYVSKKSKHEEEEWTDDDLVESL | not soluble
10 | MYIECEGILKRYFKDVPEIIKRACKFAREKLGEGSHGFSHTLRVLAIALHIGSKENADLEILALAALLHDIARPLEDKGVIRDHAIEGAKIAKEFLSNYEKVEEVAHAIASHRFSNDVEPRTLEAKILSDADKIDALGAIGIARVFIYSCEKERSIEDSIKHFEEKILKLKDLMYTKTGKEIAEKRHKVVKWYVETLKSELREFLYLEHHHHHH | soluble
11 | MYKQIILACDGSEHALRAAEHATYIAKCSEETNVEVVYVVDNRTAKSDIIQGQTDLETISASRKDKLKEIEGLLKKENISYTITILHGDPGDTIVQYVNTGDIDLVIAGSRGLNTLQEMVLGSVSHKIAKRVKCPVMIVK | not soluble
12 | MYKTIIMPVDVFEMALSDKAVRHAEFLAQQDGVIHLLHVLPGSASFTMSRFTADLRRFEEHLQHEAETRLQTMVSHFSIDPSRIKLHVRFGSVRDMVNELASEINADVVVIGSRNPSISTHLLGSNASSVIRHAHIPVMVVR | not soluble
13 | MYLKARQDELTESTIQSQEYRLEAFEQFCREEGIENLNDLSGRDLYAYRVWRREGNGKGRDEIEPITLRGQLATVRSFLRFAAEVDAVPEDLRTKVPLPTILEHHHHHH | not soluble
14 | MYLKETLDQFTSINNILKLLKKSPGFNKYCIQERLPKETVITSDKRRKYIYIIEDGFMKLVFEGTNKHNFSYILQKGAFPHLPVYTEDIPKHMMLIALTDVVWWKIEFQFFKEMMELEDPRNYIMLHQLAETRRRLYIIAVQEKLSSRESIYFSLNTMIDYGLRVSEKAVELPKFLTYQILADNSNTSKSYTSKVLSNLREKGILESQKKPWRINDVQKLQELIDAEALLAIL | not soluble
15 | MYRAIGMIELTSVARGIYATDQMLKIAYVDVVSATPVCPGKYIAIVQGDVAAVESSISTGIAISGEYLVDSFVLPNVHEGIFPAITATTMPDGTGALGIMESFSMASMITAADAALKAADVQALELRLGSGLGGKAYFTFTGDVAAVEAGIEAGKAIAMEKGLLVDIEVIPSPSDRLWTSLY | soluble
16 | MYRDRVRLPSLLDKVMSAAEAADLIQDGMTVGMSGFTRAGEAKAVPQALAMRAKERPLRISLMTGASLGNDLDKQLTEAGVLARRMPFQVDSTLRKAINAGEVMFIDQHLSETVEQLRNHQLKLPDIAVIEAAAITEQGHIVPTTSVGNSASFAIFAKQVIVEINLAHSTNLEGLHDIYIPTYRPTRTPIPLTRVDDRIGSTAIPIPPEKIVAIVINDQPDSPSTVLPPDGETQAIANHLIDFFKREVDAGRMSNSLGPLQAGIGSIANAVMCGLIESPFENLTMYSEVLQDSTFDLIDAGKLRFASGSSITLSPRRNADVFGNLERYKDKLVLRPQEISNHPEVVRRLGIIGINTALEFDIYGNVNSTHVGGTKMMNGIGGSGDFARNAHLAIFVTKSIAKGGNISSVVPMVSHVDHTEHDVDILVTEQGLADLRGLAPRERARVIIENCVHPSYQAPLLDYFEAACAKGGHTPHLLREALAWHLNLEERGHMLAG | soluble
17 | MYRLQIEKIRGFRDFYPEDMDVEKFIFKTAEEAAEAFGFRRIDFPSLEYLDLYRIKSGEELLQQTYSFVDKGGREVTLIPEATPSTVRMVTSRKDLQRPLRWYSFPKVWRYEEPQAGRYREHYQFNADIFGSDSPEADAEVIALASSILDRLGLQDIYEIRINSRKIMEEIIGGMTSSDPFSVFSIIDRYHKISREEFVDQLRSAGIGEDGVSMIADLCSGTRGIDEMARITGKSSEEIARMAAVEDLLASYGVKNVRYDFSIVRGLSYYTGIVFEAYDRSGQFRAILGGGRYDNLASLMSGESVPAVGFGMGDAVISLLLKRENVQIPREKKSVYICRVGKINSSIMNEYSRKLRERGMNVTVEIMERGLSAQLKYASAIGADFAVIFGERDLERGVVTIRNMYTGSQENVGLDSVVEHLISQATLEHHHHHH | soluble
18 | MYSKILGTGSYLPSQVRTNADLEKMVETSDEWIVARTGIRERRIAADNETVADMAFFAAQNAINMAGIDKHDIDMIIVATTSASHTFPSAACQVQGKLGIKGCPAFDLAAACSGFMYALSIADQHVKSGMCKHVLVIGADALSKTCDPTDRSTIILFGDGAGAVVVGASNEPGILSTHIHADGEFGDLLSLEVPVRGGDSDKWLHMAGNEVFKVAVTQLSKLVVDTLKANNMHKSELDWLVPHQANYRIISATAKKLSMSLDQVVITLDRHGNTSAATVPTALDEAVRDGRIQRGQMLLLEAFGGGFTWGSALVKF | not soluble
19 | MYSSNYIYQHDDLELHGFLAHEEGIKQSRPAVIVAHDWSGRGEFACLKAKQLAEMGYIGFALDMYGQGQIGSNNDEKMALMQPLYSDRSLLRGRLYAALEAIKSISVVDNNRIAIIGFCFGGLCALDLARSGADIRGAVSFHGLLNKPENLASGRIKAKILALHGYDDPMAKPEQVHAFCQEMTEANVDWQMHMYGQVKHAFTNPQAHDEHLGLIYDEVAARRSWQAMSQFLQEIFN | not soluble
20 | MYTDSNNRNFDEVNHQHQQEQDFNGQSKYDYPQFNRPMGLRWRDDQRMMEYFMSNGPVETVPVMPILTEHPPASPFGRGPSTERPTTSSRYEYSSPSLEDIDLIDVLWRSDIAGEKGTRQVAPADQYECDLQTLTEKSTVAPLTAEENARYEDLSKGFYNGFFESFNNNQYQQKHQQQQREQIKTPTLEHPTQKAELEDDLFDEDLAQLFEDVSREEGQLNQLFDNKQQHPVINNVSLSEGIVYNQANLTEMQEMRDSCNQVSISTIPTTSTAQPETLFNVTDSQTVEQWLPTEVVPNDVFPTSNYAYIGMQNDSLQAVVSNGQIDYDHSYQSTGQTPLSPLIIGSSGRQQQTQTSPGSVTVTATATQSLFDPYHSQRHSFSDCTTDSSSTCSRLSSESPRYTSESSTGTHESRFYGKLAPSSGSRYQRSSSPRSSQSSIKIARVVPLASGQRKRGRQSKDEQLASDNELPVSAFQISEMSLSELQQVLKNESLSEYQRQLIRKIRRRGKNKVAARTCRQRRTDRHDKMSHYI | not soluble
21 | MYTFKKGDADYQVMLNENFKEITDSFEDGLFVRKNSKILDLNDAILPGIYSIPATGVDNKPLPNSGSLFVCKDPGGVRQLFQTERTIFIRQLGGVPSSWTDWKKVAFEKEQPFEAWYSPGTNHAGFKNKARYNLGPEFSNIGQRLGLPMKSEPLEWNSGRWQAKVLRDCKLNISGTVKYHVGSSRGVLYAYTHIDKGLDEGVGDLGIGSAVGAVGGLDYKNVAAFDLNVTLKKGEYLAFRLELAADKQLDYTQLSSMHITELV | not soluble
22 | MYTKILGTGSYLPVQVRSNADLEKMVDTSDEWIVTRTGIRERRIAGLDETVATMGFQAAEKALEMAGIDKDDIGLIIVATTSSSHAFPSSACQVQRMLGIKDAASFDLAAACAGFTYALSVADQYVKSGAVKHAIVIGSDVLSRALDPEDRGTIILFGDGAGAVVLGASEQPGIMSTHLHADGRYGELLALPYPDRQQDQPAYVTMAGNEVFKVAVTELAHIVDETLQANNLDRTALDWLVPHQANLRIISATAKKLGMGMDKVVITLDRHGNTSAASVPSAFDEAVRDGRIQRGQLVLLEAFGGGFTWGSALVRF | not soluble
23 | MYTNRWEGLDEFVAVAECGQFTAAALRLGVSSSHVSRQIVRLEERLQTRLLYRSTRKVALTEAGQTFLHHCQRLQDGREEALRAVGDLASEPKGLLRMTCAVAYGERFITPLVTRFMELYPQLRVDIELSNDTLDLVHEGMDLAIRLGRLQDSRMVATRLAPRQMYLCASPSYLERYGRPHSLSELSRHNCLIGGSDTWQLQQNGREFSQRVQGNWRCNSGQAVLDAALQGVGLCQLPDYYVQKHLKEGALVSLLEAHQPPNTAVWALYPQQRHLSPKVRKLVDYLKEGLAMQDEYRQ | not soluble
